Test results from the supplement of paper PMC7125110.
± gives the standard error. This sample holds only a part of the variants without activity.

B1: glmS ribozyme (parent)
chain: AUAAAAGCGCCAGAACUACAGAAAUGUAGUUGACGAGGAGGAGGUUUAUCGAAUUUUCGGCGGAUGCCUCCAAA

Key:
Conditions in all cases: with glucosamine-6-phosphate
glucosamine-6-phosphate [1] = variants of: B1; experiment: self-cleavage kobs at 640 uM GlcN6P; higher = faster cleavage; RNA array
Procedure, shortened: (§1)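 On sequenced MiSeq chips, barcoded ribozyme variants were made in situ by E. coli RNA polymerase and followed at 37 °C through a hybridised Cy3 probe. Glucosamine-6-phosphate was flowed in at 40 μM to 10 mM in HEPES/KCl/Mg(OAc)2 buffer. Exponential fits to normalised per-tile medians gave kobs, and weighted Michaelis–Menten fits gave kcat and KM.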

glucosamine-6-phosphate [2] = variants of: B1; experiment: self-cleavage kobs at 10000 uM GlcN6P; higher = faster cleavage; RNA array
Procedure, shortened: as §1

glucosamine-6-phosphate [3] = variants of: B1; experiment: self-cleavage kobs at 2500 uM GlcN6P; higher = faster cleavage; RNA array
Procedure, shortened: as §1

| Variant | self-cleavage kobs at 640 uM GlcN6P (glucosamine-6-phosphate [1]) | self-cleavage kobs at 10000 uM GlcN6P (glucosamine-6-phosphate [2]) | self-cleavage kobs at 2500 uM GlcN6P (glucosamine-6-phosphate [3]) |
| --- | --- | --- | --- |
| A39C U45G U56G | 7.85e-05 ± 2.3e-05 s⁻¹ | – | – |
| G38A U57A | < 1e-05 s⁻¹ | < 1e-05 s⁻¹ | – |
| U65G U69C C71U | 6.22e-05 ± 1.6e-05 s⁻¹ | – | 6.97e-05 ± 2.6e-05 s⁻¹ |
| G44C A48U C50A | < 1e-05 s⁻¹ | – | – |
| U46A A52C C61U | < 1e-05 s⁻¹ | – | < 1e-05 s⁻¹ |
| A48G U55C G59C | < 1e-05 s⁻¹ | – | < 1e-05 s⁻¹ |
| C50G C61A C67U | 0.000392 ± 0.0001 s⁻¹ | – | 5.47e-05 ± 2.1e-05 s⁻¹ |
| U55G G63U | < 1e-05 s⁻¹ | – | < 1e-05 s⁻¹ |
| U47A G66C | 0.000329 ± 7.2e-05 s⁻¹ | – | 0.000448 ± 0.00013 s⁻¹ |
| G40A A42G G51U U57A U69C | < 1e-05 s⁻¹ | – | – |
| U46C G59C | < 1e-05 s⁻¹ | – | – |
| G44U A48U A64G C67G | 0.000188 ± 7.9e-05 s⁻¹ | – | 0.000485 ± 0.00017 s⁻¹ |
| G63C U69G | 5.78e-05 ± 2.2e-05 s⁻¹ | – | – |
| G63U U65C | < 1e-05 s⁻¹ | – | < 1e-05 s⁻¹ |
| A52C U54G | < 1e-05 s⁻¹ | – | – |
| U46G G51U U56G U69G | 0.000445 ± 0.00011 s⁻¹ | – | – |
| U49C U55C | < 1e-05 s⁻¹ | – | < 1e-05 s⁻¹ |
| G37U A64U | < 1e-05 s⁻¹ | – | < 1e-05 s⁻¹ |
| A39G C61G A64C | < 1e-05 s⁻¹ | – | < 1e-05 s⁻¹ |
| A39G U47G G59C | < 1e-05 s⁻¹ | – | – |
| U45G G60A C67G | < 1e-05 s⁻¹ | – | < 1e-05 s⁻¹ |
| G51C G63U | < 1e-05 s⁻¹ | < 1e-05 s⁻¹ | – |

| Variant | self-cleavage kobs at 640 uM GlcN6P (glucosamine-6-phosphate [1]) | self-cleavage kobs at 10000 uM GlcN6P (glucosamine-6-phosphate [2]) | self-cleavage kobs at 2500 uM GlcN6P (glucosamine-6-phosphate [3]) |
| --- | --- | --- | --- |
| G38A A39U U55G U69G | < 1e-05 s⁻¹ | – | – |
| G41A U47A A52C | < 1e-05 s⁻¹ | – | – |
| U57G G59U | < 1e-05 s⁻¹ | < 1e-05 s⁻¹ | < 1e-05 s⁻¹ |
| A42U U47A U49A | < 1e-05 s⁻¹ | – | < 1e-05 s⁻¹ |
| G38U G41A U46G U49G | < 1e-05 s⁻¹ | < 1e-05 s⁻¹ | – |
| G40U G44U G62U | < 1e-05 s⁻¹ | – | < 1e-05 s⁻¹ |
| G41C G51U A64C | < 1e-05 s⁻¹ | – | < 1e-05 s⁻¹ |
| C58G G62A G63C C71A | 5.92e-05 ± 2.4e-05 s⁻¹ | – | – |
| A53U C58A C68U | 9.67e-05 ± 3.2e-05 s⁻¹ | – | 6.03e-05 ± 2e-05 s⁻¹ |
| A64U C67U C71U | < 1e-05 s⁻¹ | – | – |
| A42C U56C G60U | < 1e-05 s⁻¹ | – | – |
| G41U U47G G51U | < 1e-05 s⁻¹ | – | < 1e-05 s⁻¹ |
| C58U C61G C67U | 7.86e-05 ± 3.1e-05 s⁻¹ | – | – |
| C50U C61A A64U C67G | 8.84e-05 ± 4.2e-05 s⁻¹ | – | 9.68e-05 ± 4.1e-05 s⁻¹ |
| A39U G41U A42U | 5.35e-05 ± 1.4e-05 s⁻¹ | – | 0.000135 ± 2.2e-05 s⁻¹ |
| G37U C50A G51C | < 1e-05 s⁻¹ | – | – |
| U46G G63A C70G | 5.25e-05 ± 2.2e-05 s⁻¹ | – | – |
| U46G A53G C70A | 0.000507 ± 0.0001 s⁻¹ | – | – |
| U45G U46C C71U | 0.000925 ± 0.00024 s⁻¹ | – | 0.00445 ± 0.001 s⁻¹ |
| A42U C67A U69G C71U | 4.51e-05 ± 2e-05 s⁻¹ | – | 7.23e-05 ± 1.9e-05 s⁻¹ |
| U56A C58G G59A G60A | < 1e-05 s⁻¹ | – | < 1e-05 s⁻¹ |
| G37C C50U A53G U56C | < 1e-05 s⁻¹ | – | – |

| Variant | self-cleavage kobs at 640 uM GlcN6P (glucosamine-6-phosphate [1]) | self-cleavage kobs at 10000 uM GlcN6P (glucosamine-6-phosphate [2]) | self-cleavage kobs at 2500 uM GlcN6P (glucosamine-6-phosphate [3]) |
| --- | --- | --- | --- |
| A42U G51A G63U | < 1e-05 s⁻¹ | – | – |
| G38A G44U G62U | < 1e-05 s⁻¹ | – | < 1e-05 s⁻¹ |
| G44U A64U C68A | < 1e-05 s⁻¹ | – | – |
| G43A U49G C50G U57C | < 1e-05 s⁻¹ | – | – |
| G41A G51A C68G | < 1e-05 s⁻¹ | – | – |
| U54G U57A C58G C68A | 0.000592 ± 0.00015 s⁻¹ | – | – |
| U57A G63U | < 1e-05 s⁻¹ | – | – |
| A42U G44C C68U | < 1e-05 s⁻¹ | – | < 1e-05 s⁻¹ |
| G37C A48C C71G | < 1e-05 s⁻¹ | – | – |
| G40C C67G C70G | < 1e-05 s⁻¹ | < 1e-05 s⁻¹ | – |
| G37U A48G C70U | < 1e-05 s⁻¹ | – | – |
| U45C U47C | 0.000179 ± 5.5e-05 s⁻¹ | – | 0.000515 ± 0.00013 s⁻¹ |
| G38C G44U G51C A52C C71U | < 1e-05 s⁻¹ | – | – |
| U46C G51U A52G U55A C61G | < 1e-05 s⁻¹ | – | < 1e-05 s⁻¹ |
| U46G C50U C67U C68A U69G | 0.00024 ± 9.9e-05 s⁻¹ | 4.36e-05 ± 1.5e-05 s⁻¹ | – |
| A52G U69G C70U | 0.000107 ± 3.1e-05 s⁻¹ | – | 7.59e-05 ± 1.7e-05 s⁻¹ |
| G43C G44U G60U | < 1e-05 s⁻¹ | – | – |
| G60U U69A | < 1e-05 s⁻¹ | < 1e-05 s⁻¹ | < 1e-05 s⁻¹ |
| A42U U57G | < 1e-05 s⁻¹ | – | < 1e-05 s⁻¹ |
| G40U U45C | 0.000101 ± 2.7e-05 s⁻¹ | 0.000329 ± 7e-05 s⁻¹ | 0.000729 ± 0.00014 s⁻¹ |
| G41U A52C C71A | < 1e-05 s⁻¹ | – | < 1e-05 s⁻¹ |
| U69C C70G | 4.82e-05 ± 1.6e-05 s⁻¹ | – | – |
